T1: Myo5 SH3 (MYO5_YEAST), Q04439
T1 chain: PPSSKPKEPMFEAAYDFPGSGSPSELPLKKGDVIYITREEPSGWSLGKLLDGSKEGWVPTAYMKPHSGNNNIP

This assay concerns the target T1, Myo5 SH3 (MYO5_YEAST), Q04439. Put plainly: SPOT array.
Turning to TEDGFVIPALPAAV [YPR190C 407-420], the normalised SPOT signal, Boehringer light units (BLU); mean over the file's lines of this peptide turned out to be 290.
Turning to VELHFPKPEDPASI [YMR246W 254-267], the normalised SPOT signal, Boehringer light units (BLU); mean over the file's lines of this peptide came out at 14.9.
For VFKFLFHPVTPSHF [YJL005W 768-781] the value was 565; for SPSTMDFPKLPSFQ [YPL089C 234-247], 467.
With TLPPLSSPMNPNGH [YDR096W 584-597], the normalised SPOT signal, Boehringer light units (BLU); mean over the file's lines of this peptide is 252.
For TPSNMGSPGSPVNV [YOL148C 21-34] the value was 156; for VFGTYLGPDAPLSK [YMR272C 367-380], 130.
The figure for TAAELQAPPPPPSS [YPL004C 14-27] is 315; for TFRDMDLPQHPVIH [YLR030W 45-58] it is 188; for TPINFVFPNLPLEH [YHR007C 237-250] it is 81.8.
The figure for VAVPFTLPVIPYDL [YBR223C 517-530] is 240; for SWLTMLPPMAPLLS [YMR158W-A 93-106] it is 505; for TEEILPTPVQPGGH [YOL070C 304-317] it is 121.
Take VEPEWYLPILPMIL [YNL088W 813-826]: the normalised SPOT signal, Boehringer light units (BLU); mean over the file's lines of this peptide was determined as 236.
For TEGKYAPPSQPSMA [YDL195W 822-835] the value was 223; for TLFRFIVPFNPYFS [YLR198C 4-17], 882.
SWRSLTKPKIPLYK [YMR287C 119-132]: the normalised SPOT signal, Boehringer light units (BLU); mean over the file's lines of this peptide stood at 357.
The figure for TLEWLLTPYTPGDD [YLR422W 982-995] is 164; for TWKMHLWPVSPPQL [YLR039C 34-47] it is 224; for SWAVLPVPGGPVMY [YJL195C 85-98] it is 69.2.
In turn, VAGYFVIPHTPMPS [YOR378W 217-230] yielded a normalised SPOT signal, Boehringer light units (BLU); mean over the file's lines of this peptide of 180.
For SPSDFNKPDLPELI [YER003C 229-242] the value was 317; for SPKKHVSPSRPPSV [YAL028W 272-285], 1430; for VAKSYGFPVPPKVN [YMR290C 473-486], 259.
TFSIYSIPSKPGES [YPL100W 474-487] displayed a normalised SPOT signal, Boehringer light units (BLU); mean over the file's lines of this peptide of 227.
In turn, VEVIMHSPSDPEYA [YML117W 995-1008] registered a normalised SPOT signal, Boehringer light units (BLU); mean over the file's lines of this peptide of 150.
In turn, VAWSHDSPKPPSDR [YHR163W 199-212] displayed a normalised SPOT signal, Boehringer light units (BLU); mean over the file's lines of this peptide of 30.6.
The molecule VFLRLISPTRPSLE [YOR249C 40-53] came in with a normalised SPOT signal, Boehringer light units (BLU); mean over the file's lines of this peptide of 1640.
Regarding TPTPHPHPHTPHPH [YHR217C 42-55], the normalised SPOT signal, Boehringer light units (BLU); mean over the file's lines of this peptide was determined as 158.
With SPLSWSGPLTPPTF [YNL243W 594-607], the normalised SPOT signal, Boehringer light units (BLU); mean over the file's lines of this peptide was 168.
For VARPLSVPGSPRDL [YLR258W 646-659] the value was 186; for TLHELGVPITPIAF [YOR184W 245-258], 119; for SPKPFSKPQEPVKA [YCR088W 389-402], 359.
The figure for TLKKFVLPSLPRKN [YOR034C 339-352] is 504; for SPSTHAAPVTPIIS [YNL027W 321-334] it is 53.3.
With TLRSMIPPFTPQLD [YGR092W 484-497], the normalised SPOT signal, Boehringer light units (BLU); mean over the file's lines of this peptide worked out at 413.
For SPNDHSDPSSPSNR [YNR014W 177-190] the value was 76.1; for TPMDFPEPVGPLAI [YPL154C 366-379], 175.
As to SPVPLGSPRGPLPV [YLR163C 237-250], the normalised SPOT signal, Boehringer light units (BLU); mean over the file's lines of this peptide worked out at 135.
The figure for VAPGLWFPNSPPPL [YPL128C 101-114] is 4830.
For TASQLQNPPPPPST [YGR086C 14-27] the value was 168.
SPSQYQYPSQPALS [YKL146W 143-156] registered a normalised SPOT signal, Boehringer light units (BLU); mean over the file's lines of this peptide of 65.2.
For TPTHHHIPHIPNQN [YPR065W 331-344] the value was 148; for TPYQLLSPILPVLL [YBR136W 679-692], 287; for SPKFLNSPDLPERT [YDL225W 441-454], 183.
For SPRSLPTPILPSMS [YML083C 47-60] the value was 193; for SPRHYNVPSSPIAP [YIL101C 572-585], 233; for TAWDMVPPYSPLSE [YPR090W 8-21], 127.
The figure for TPPPPPLPSVLSS [YNL271C 1302-1314] is 25800; for TLIEYMGPAPPKGS [YLR178C 145-158] it is 133; for TAPIHSTPKPPPND [YHR182W 732-745] it is 77.7.
Consider SPKKLASPRTPNAN [YKR077W 157-170], for which the normalised SPOT signal, Boehringer light units (BLU); mean over the file's lines of this peptide was determined as 276.
For TLATLTEPKLPKSY [YOL111C 18-31] the value was 18.
For SPVNLLKPFNPTLP [YJL050W 730-743] the value was 123.

(Values after paper PMC314469, “Protein Interaction Networks by Proteome Peptide Scanning” (PLoS Biology, 2004).)
